Data as given in publication PMC6195611.
“And” between values parts separate entries of the source, which are not always exact repeats. Equal entries are not always repeated. One block for each substance: values may come before it.

Key:
[1] = target: K145E SAASoti (Stylocoeniella armata); test: SEC; Superdex 200 10/300 GL, 20 mM Tris-HCl 150 mM NaCl pH 7.5, 0.5 ml/min, absorbance at 280 and 509 nm (the legend of Fig. 2 gives Tris-HCl 100 mM, CaCl2 10 mM, pH 7.6); wild type also run with DTT
[2] = target: K145N SAASoti (Stylocoeniella armata); test: as above
[3] = target: K145N SAASoti (Stylocoeniella armata); test: two-focus fluorescence correlation spectroscopy (2fFCS); diffusion coefficient; 10 mM phosphate buffer, 150 mM NaCl pH 7.4, ~10^-9 M protein, 25 °C
[4] = target: K149E SAASoti (Stylocoeniella armata); test: SEC; Superdex 200 10/300 GL, 20 mM Tris-HCl 150 mM NaCl pH 7.5, 0.5 ml/min, absorbance at 280 and 509 nm (the legend of Fig. 2 gives Tris-HCl 100 mM, CaCl2 10 mM, pH 7.6); wild type also run with DTT
[5] = target: K149E SAASoti (Stylocoeniella armata); test: two-focus fluorescence correlation spectroscopy (2fFCS); diffusion coefficient; 10 mM phosphate buffer, 150 mM NaCl pH 7.4, ~10^-9 M protein, 25 °C
[6] = target: K149N SAASoti (Stylocoeniella armata); test: SEC; Superdex 200 10/300 GL, 20 mM Tris-HCl 150 mM NaCl pH 7.5, 0.5 ml/min, absorbance at 280 and 509 nm (the legend of Fig. 2 gives Tris-HCl 100 mM, CaCl2 10 mM, pH 7.6); wild type also run with DTT
[7] = target: K149N SAASoti (Stylocoeniella armata); test: two-focus fluorescence correlation spectroscopy (2fFCS); diffusion coefficient; 10 mM phosphate buffer, 150 mM NaCl pH 7.4, ~10^-9 M protein, 25 °C
[8] = target: V127T SAASoti (Stylocoeniella armata); test: SEC; V127T SAASoti at high concentration (0.22 mM)
[9] = target: wild type SAASoti (Stylocoeniella armata); test: SEC; Superdex 200 10/300 GL, 20 mM Tris-HCl 150 mM NaCl pH 7.5, 0.5 ml/min, absorbance at 280 and 509 nm (the legend of Fig. 2 gives Tris-HCl 100 mM, CaCl2 10 mM, pH 7.6); wild type also run with DTT

- stoichiometry N [1]: 4
Substance: K145E SAASoti (natural protein)

- stoichiometry N [2]: 4
- stoichiometry N [3]: 4
Substance: K145N SAASoti (natural protein)

- stoichiometry N [4]: 4
- stoichiometry N [5]: 4
Substance: K149E SAASoti (natural protein)

- stoichiometry N [6]: 4
- stoichiometry N [7]: 4
Substance: K149N SAASoti (natural protein)

- stoichiometry N [8]: 2
Substance: V127T SAASoti (natural protein)

- stoichiometry N [9]: 4 and 8
Substance: wild type SAASoti (natural protein)
